In PMC9537296, “A novel glucagon analog with an extended half-life, HM15136, normalizes glucose levels in rodent models of congenital hyperinsulinism” (Scientific Reports, 2022):

Key:
FcRn = FcRn (UniProt P55899); test: SPR; association with FcRn at pH 6.0, dissociation at pH 7.4
[1] = biological target: human glucagon receptor (human) (UniProt P47871)
FcγRIA = FcγRIA (UniProt P12314); test: SPR; BIACORE T200, 25 °C; FcγRs immobilised by amine coupling on CM5 chips; test materials flowed over (HMC001 and I.V.-Globulin SN 31.25-500 nM, HM15136 30.38-486 nM); steady-state affinity fit
FcγRIIIB = FcγRIIIB (UniProt O75015); test: as above
FcγRIIA = FcγRIIA (UniProt P12318); test: as above
FcγRIIIA = FcγRIIIA (UniProt P08637); test: as above
Sequence of FcγRIIIA (P08637 17-208): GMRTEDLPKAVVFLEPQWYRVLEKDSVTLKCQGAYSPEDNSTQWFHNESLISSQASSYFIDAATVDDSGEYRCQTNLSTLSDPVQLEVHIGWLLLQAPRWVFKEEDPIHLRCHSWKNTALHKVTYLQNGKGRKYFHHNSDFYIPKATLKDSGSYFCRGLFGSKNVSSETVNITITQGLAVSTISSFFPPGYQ

Sequence of FcγRIIA (P12318 34-217): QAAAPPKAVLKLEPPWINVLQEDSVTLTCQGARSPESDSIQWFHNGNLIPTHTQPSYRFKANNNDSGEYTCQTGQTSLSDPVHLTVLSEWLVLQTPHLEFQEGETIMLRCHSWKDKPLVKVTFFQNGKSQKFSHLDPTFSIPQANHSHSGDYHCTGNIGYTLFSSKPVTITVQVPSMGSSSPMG
Sequence of FcγRIIIB (O75015 17-200): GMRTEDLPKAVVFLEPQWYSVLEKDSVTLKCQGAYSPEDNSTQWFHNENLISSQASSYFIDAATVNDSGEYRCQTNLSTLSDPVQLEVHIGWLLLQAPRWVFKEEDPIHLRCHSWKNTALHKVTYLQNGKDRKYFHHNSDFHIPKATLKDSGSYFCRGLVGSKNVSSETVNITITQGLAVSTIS
Sequence of FcγRIA (P12314 16-292): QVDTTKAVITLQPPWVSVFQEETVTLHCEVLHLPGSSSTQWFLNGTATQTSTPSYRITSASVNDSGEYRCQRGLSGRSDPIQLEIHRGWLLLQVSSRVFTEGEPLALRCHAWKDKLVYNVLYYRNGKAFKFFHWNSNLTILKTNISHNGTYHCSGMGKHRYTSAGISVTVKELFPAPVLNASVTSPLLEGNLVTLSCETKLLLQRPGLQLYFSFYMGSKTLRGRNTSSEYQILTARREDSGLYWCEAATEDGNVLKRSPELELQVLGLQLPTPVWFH

A Ka (FcRn) of 420000 and an EC50 of intracellular cAMP generation in hGCGR/CHO cells (0.0015 to 1555.2 nM HM15136) [1] of 0.024 nM were found for HM15136 in this work.

A Kd (FcγRIA) of 26.7 nM, a Kd (FcγRIIIB) of 1590 nM and a Kd (FcγRIIA) of 184 nM were found for IgG1 (=I.V.-Globulin SN) (antibody) in this work. For the same substance, the Kd (FcγRIIIA) was 209 nM.
